The record followed here is article PMC2630774 (FEBS letters, 2008).

The labels stand for the following.
B4: Arnt (AhR nuclear translocator), baculovirus expressed 6His fusion (natural protein)
chain: not shown

The target of assay [1] is B4. In words: co-IP.
Assay [2] concerns the target B4. In words: native gel or EMSA. (In general: In EMSA bound probe runs differently from free probe, usually more slowly.)
Assay [3] has as its target T1, AhR (aryl hydrocarbon receptor), baculovirus expressed 6His fusion (human, UniProt P35869 11-848).
T1 sequence (looked up): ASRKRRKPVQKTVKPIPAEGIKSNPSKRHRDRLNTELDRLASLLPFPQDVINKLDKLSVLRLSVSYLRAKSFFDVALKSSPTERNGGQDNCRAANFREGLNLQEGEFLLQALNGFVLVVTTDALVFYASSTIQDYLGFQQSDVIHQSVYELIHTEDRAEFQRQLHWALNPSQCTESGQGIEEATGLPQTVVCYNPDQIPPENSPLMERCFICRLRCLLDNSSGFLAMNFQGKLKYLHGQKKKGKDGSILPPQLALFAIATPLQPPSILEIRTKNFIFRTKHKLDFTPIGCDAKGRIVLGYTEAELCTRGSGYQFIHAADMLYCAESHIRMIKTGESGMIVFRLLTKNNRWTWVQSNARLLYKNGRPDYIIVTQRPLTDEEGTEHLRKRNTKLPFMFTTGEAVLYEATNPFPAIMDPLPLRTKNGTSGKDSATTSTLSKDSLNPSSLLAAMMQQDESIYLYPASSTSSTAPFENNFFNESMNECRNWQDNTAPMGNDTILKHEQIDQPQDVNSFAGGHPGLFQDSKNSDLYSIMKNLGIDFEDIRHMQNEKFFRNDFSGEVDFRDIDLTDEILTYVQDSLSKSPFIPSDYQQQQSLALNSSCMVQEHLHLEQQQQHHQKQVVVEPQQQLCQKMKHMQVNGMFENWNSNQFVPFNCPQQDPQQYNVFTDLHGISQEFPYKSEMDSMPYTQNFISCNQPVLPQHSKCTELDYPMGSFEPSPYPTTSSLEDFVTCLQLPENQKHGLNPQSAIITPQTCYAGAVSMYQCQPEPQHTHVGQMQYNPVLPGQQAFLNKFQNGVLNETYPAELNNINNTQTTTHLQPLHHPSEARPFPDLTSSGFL
The assay is described as follows: native gel or EMSA.

B1: 32P-CΔ553 (AhR deletion construct with C-terminal 553 amino acids deleted, thioredoxin released, 32P-labelled) (domain or fragment, human, UniProt P35869 1-295, looked up)
chain: MNSSSANITYASRKRRKPVQKTVKPIPAEGIKSNPSKRHRDRLNTELDRLASLLPFPQDVINKLDKLSVLRLSVSYLRAKSFFDVALKSSPTERNGGQDNCRAANFREGLNLQEGEFLLQALNGFVLVVTTDALVFYASSTIQDYLGFQQSDVIHQSVYELIHTEDRAEFQRQLHWALNPSQCTESGQGIEEATGLPQTVVCYNPDQIPPENSPLMERCFICRLRCLLDNSSGFLAMNFQGKLKYLHGQKKKGKDGSILPPQLALFAIATPLQPPSILEIRTKNFIFRTKHKLDF
modifications: 32P-phosphate (HMK phosphorylation using 32P-gamma ATP; residue not stated)
For B1, the binding result in assay [1] was “binds”.

B2: unlabelled CΔ553 (AhR deletion construct with C-terminal 553 amino acids deleted, without thioredoxin fusion) (domain or fragment, human, UniProt P35869 1-295, looked up)
chain: MNSSSANITYASRKRRKPVQKTVKPIPAEGIKSNPSKRHRDRLNTELDRLASLLPFPQDVINKLDKLSVLRLSVSYLRAKSFFDVALKSSPTERNGGQDNCRAANFREGLNLQEGEFLLQALNGFVLVVTTDALVFYASSTIQDYLGFQQSDVIHQSVYELIHTEDRAEFQRQLHWALNPSQCTESGQGIEEATGLPQTVVCYNPDQIPPENSPLMERCFICRLRCLLDNSSGFLAMNFQGKLKYLHGQKKKGKDGSILPPQLALFAIATPLQPPSILEIRTKNFIFRTKHKLDF
With B2, in assay [2], the binding result is given as “binds”.

B3: TH-CΔ553 (thioredoxin fusion of CΔ553, a deletion construct of human AhR) (domain or fragment, UniProt P35869 1-295, looked up)
chain: MNSSSANITYASRKRRKPVQKTVKPIPAEGIKSNPSKRHRDRLNTELDRLASLLPFPQDVINKLDKLSVLRLSVSYLRAKSFFDVALKSSPTERNGGQDNCRAANFREGLNLQEGEFLLQALNGFVLVVTTDALVFYASSTIQDYLGFQQSDVIHQSVYELIHTEDRAEFQRQLHWALNPSQCTESGQGIEEATGLPQTVVCYNPDQIPPENSPLMERCFICRLRCLLDNSSGFLAMNFQGKLKYLHGQKKKGKDGSILPPQLALFAIATPLQPPSILEIRTKNFIFRTKHKLDF
As to B3, in assay [2], the binding result is “binds”. As for B4, the binding result in assay [3] is “binds”.
